# Measurements: US20040192900A1
# Key:
# Fc-CD22 [1] = target: Fc-CD22 (UniProt P20273); experiment: SPR (BIAcore 2000); inhibition of 2nd mAb binding to Fc-CD22 by prior saturation with G5/44 (competitor G5/44)
# Fc-CD22 [2] = target: Fc-CD22 (UniProt P20273); experiment: SPR (BIAcore 2000); 2nd mAb on Fc-CD22 pre-saturated with G5/44 (competitor G5/44)
# Fc-CD22 [3] = target: Fc-CD22 (UniProt P20273); experiment: SPR (BIAcore 2000); 2nd mAb on Fc-CD22 without G5/44
# Fc-CD22 [4] = target: Fc-CD22 (UniProt P20273); experiment: SPR (BIAcore 2000); Fc-CD22 pre-saturated with G5/44 (competitor G5/44); combined response of G5/44 and 2nd mAb
substance,measurement,setting,value
"anti-CD22 mAb SHCL-1, Leu 14 (Becton Dickinson) (antibody)",Inhibition by G544 (%),Fc-CD22 [1],69%
same,Response 3 (Response 2-1) (RU),Fc-CD22 [2],-74.5 RU
same,Response 3 adjusted for OFF rate of G544 (RU),Fc-CD22 [2],9 RU
same,Binding of 2nd mAb without G544 adjusted for background (RU),Fc-CD22 [3],29.3 RU
same,Response 2 after 2nd Anti-CD22 mAb (RU),Fc-CD22 [4],580 RU
anti-CD22 mAb To 15 (Dako Corp) (antibody),Inhibition by G544 (%),Fc-CD22 [1],7%
same,Response 3 (Response 2-1) (RU),Fc-CD22 [2],487 RU
same,Response 3 adjusted for OFF rate of G544 (RU),Fc-CD22 [2],570 RU
same,Binding of 2nd mAb without G544 adjusted for background (RU),Fc-CD22 [3],615 RU
same,Response 2 after 2nd Anti-CD22 mAb (RU),Fc-CD22 [4],1160 RU
anti-CD22 mAb 4KB128 (Dako Corp) (antibody),Inhibition by G544 (%),Fc-CD22 [1],0%
same,Response 3 (Response 2-1) (RU),Fc-CD22 [2],652 RU
same,Response 3 adjusted for OFF rate of G544 (RU),Fc-CD22 [2],736 RU
same,Binding of 2nd mAb without G544 adjusted for background (RU),Fc-CD22 [3],739 RU
same,Response 2 after 2nd Anti-CD22 mAb (RU),Fc-CD22 [4],1340 RU
"anti-CD19 antibody BU12 (Celltech, Slough, UK)",Inhibition by G544 (%),Fc-CD22 [1],0%
same,Response 3 (Response 2-1) (RU),Fc-CD22 [2],-83.5 RU
same,Response 3 adjusted for OFF rate of G544 (RU),Fc-CD22 [2],0 RU
same,Response 2 after 2nd Anti-CD22 mAb (RU),Fc-CD22 [4],603 RU
anti-CD22 mAb HD239 (Santa Cruz Biotech) (antibody),Inhibition by G544 (%),Fc-CD22 [1],91%
same,Response 3 (Response 2-1) (RU),Fc-CD22 [2],-81.8 RU
same,Response 3 adjusted for OFF rate of G544 (RU),Fc-CD22 [2],1.7 RU
same,Binding of 2nd mAb without G544 adjusted for background (RU),Fc-CD22 [3],19.3 RU
same,Response 2 after 2nd Anti-CD22 mAb (RU),Fc-CD22 [4],629 RU
